For this assay, the system named is RAJI cells. The experiment in a line: JNG assay, co-culture with RAJI cells. The assay is classed as cell-based. The conditions noted are these: JNG cells expressing construct, co-culture with Raji. In outline: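 Read-out is NFAT-driven GFP measured by flow cytometry after ~4–18 h co-culture of SAR-expressing JNG cells with target cells (E:T about 1:2). SARs were introduced by lentiviral spinfection and selected with puromycin or blasticidin when possible; scores (+/- to 5+ ≈ 5–50% GFP+) are relative to parental JNG cells.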

B1: 22207 (protein)
chain: MALPVTALLLPLALLLHAARPDIQMTQSPSSLSASVGDRVTITCKASDHINNWLAWYQQKPGQAPKLLIYGATTLETGVPSRFSGSGSGTDYTLTISSLQPEDFATYYCQQSWNTPWTFGQGTKLEIKRLEGQPKANPTVTLFPPSSEELQANKATLVCLISDFYPGAVTVAWKADGSPVKAGVETTKPSKQSNNKYAASSYLSLTPEQWKSHRSYSCQVTHEGSTVEKTVAPTECSPIKTDVITMDPKDNCSKDANDTLLLQLTNTSAYYMYLLLLLKSVVYFAIITCCLLRRTAFCCNGEKSRAKRSGSGATNFSLLKQAGDVEENPGPTSMDWIWRILFLVGAATGAHSFEQVQLQQPGAELVKPGASVKMSCKASGYAFSSYWINWMKQKPGQGLEWIGQIYPGDGDTNYNGKFKGRATLTADTSSSTAYMQLSSLTSEDSAVYFCARSITTVVGCAMDYWGQGTSVTVSSTRSQPHTKPSVFVMKNGTNVACLVKEFYPKDIRINLVSSKKITEFDPAIVISPSGKYNAVKLGKYEDSNSVTCSVQHDNKTVHSTDFEVKTDSTDHVKPKETENTKQPSKSCHKPKAIVHTEKVNMMSLTVLGLRMLFAKTVAVNFLLTAKLFFLRAKRSGSGVKQTLNFDLLKLAGDVESNPGPSRGHMTEYKPTVRLATRDDVPRAVRTLAAAFADYPATRHTVDPDRHIERVTELQELFLTRVGLDIGKVWVADDGAAVAVWTTPESVEAGAVFAEIGPRMAELSGSRLAAQQQMEGLLAPHRPKEPAWFLATVGVSPDHQGKGLGSAVVLPGVEAAERAGVPAFLETSAPRNLPFYERLGFTVTADVEVPEGPRTWCMTRKPGA
With B1, the “NFAT-GFP ASSAY: Raji” value is “Raji (5+) (refer to approximately 5%, 10%, 20%, 30%, 40% and 50% GFP positive cells)”.

B2: 22103 (protein)
chain: MALPVTALLLPLALLLHAARPDIQMTQSPSSLSASVGDRVTITCKASDHINNWLAWYQQKPGQAPKLLIYGATTLETGVPSRFSGSGSGTDYTLTISSLQPEDFATYYCQQSWNTPWTFGQGTKLEIKRLEGQPKANPTVTLFPPSSEELQANKATLVCLISDFYPGAVTVAWKADGSPVKAGVETTKPSKQSNNKYAASSYLSLTPEQWKSHRSYSCQVTHEGSTVEKTVAPTECSPIKTDVITMDPKDNCSKDANDTLLLQLTNTSAYYMYLLLLLKSVVYFAIITCCLLRRTAFCCNGEKSRAKRSGSGATNFSLLKQAGDVEENPGPTSMDWIWRILFLVGAATGAHSFEQVQLQQPGAELVKPGASVKMSCKASGYAFSSYWINWMKQKPGQGLEWIGQIYPGDGDTNYNGKFKGRATLTADTSSSTAYMQLSSLTSEDSAVYFCARSITTVVGCAMDYWGQGTSVTVSSTRASTKGPSVFPLAPSSKSTSGGTAALGCLVKDYFPEPVTVSWNSGALTSGVHTFPAVLQSSGLYSLSSVVTVPSSSLGTQTYICNVNHKPSNTKVDKRVEPKSCEVKTDSTDHVKPKETENTKQPSKSCHKPKAIVHTEKVNMMSLTVLGLRMLFAKTVAVNFLLTAKLFFLRAKRSGSGVKQTLNFDLLKLAGDVESNPGPSRGHMTEYKPTVRLATRDDVPRAVRTLAAAFADYPATRHTVDPDRHIERVTELQELFLTRVGLDIGKVWVADDGAAVAVWTTPESVEAGAVFAEIGPRMAELSGSRLAAQQQMEGLLAPHRPKEPAWFLATVGVSPDHQGKGLGSAVVLPGVEAAERAGVPAFLETSAPRNLPFYERLGFTVTADVEVPEGPRTWCMTRKPGA
In the case of B2, the “NFAT-GFP ASSAY: Raji” value is 4+ (refer to approximately 5%, 10%, 20%, 30%, 40% and 50% GFP positive cells).

B3: 22117 (protein)
chain: MALPVTALLLPLALLLHAARPQLQLQESGPGLVKPSETLSLTCTVSGDSISSGDYYWGWIRQPPGKGLEWIGHIYYSGVTYYNPSLKSRVTISVDTSRNQFSLKLSSVTAADTAVYYCTREDSSNWRSRGQGTLVTVSSLEIQNPDPAVYQLRDSKSSDKSVCLFTDFDSQTNVSQSKDSDVYITDKCVLDMRSMDFKSNSAVAWSNKSDFACANAFNNSIIPEDTFFPSSDVPCDVKLVEKSFETDTNLNFQNLSVIGFRILLLKVAGFNLLMTLRLWSSRAKRSGSGVKQTLNFDLLKLAGDVESNPGPTSTMALPVTALLLPLALLLHAARPQLQLQESGPGLVKPSETLSLTCTVSGDSISSGDYYWGWIRQPPGKGLEWIGHIYYSGVTYYNPSLKSRVTISVDTSRNQFSLKLSSVTAADTAVYYCTREDSSNWRSRGQGTLVTVSSLESGGGGSFEQVQLQQPGAELVKPGASVKMSCKASGYAFSSYWINWMKQKPGQGLEWIGQIYPGDGDTNYNGKFKGRATLTADTSSSTAYMQLSSLTSEDSAVYFCARSITTVVGCAMDYWGQGTSVTVSSTREDLKNVFPPEVAVFEPSKAEIAHTQKATLVCLATGFYPDHVELSWWVNGKEVHSGVCTDPQPLKEQPALNDSRYCLSSRLRVSATFWQNPRNHFRCQVQFYGLSENDEWTQDRAKPVTQIVSAEAWGRADCGITSASYHQGVLSATILYEILLGKATLYAVLVSALVLMAMVKRKDSRGRAKRSGSGATNFSLLKQAGDVEENPGPSRGHMTEYKPTVRLATRDDVPRAVRTLAAAFADYPATRHTVDPDRHIERVTELQELFLTRVGLDIGKVWVADDGAAVAVWTTPESVEAGAVFAEIGPRMAELSGSRLAAQQQMEGLLAPHRPKEPAWFLATVGVSPDHQGKGLGSAVVLPGVEAAERAGVPAFLETSAPRNLPFYERLGFTVTADVEVPEGPRTWCMTRKPGA
Consider B3, for which the “NFAT-GFP ASSAY: Raji” value is 3+ (refer to approximately 5%, 10%, 20%, 30%, 40% and 50% GFP positive cells).

B4: 22205 (protein)
chain: MTIRLLCYMGFYFLGAGLMEADIYQTPRYLVIGTGKKITLECSQTMGHDKMYWYQQDPGMELHLIHYSYGVNSTEKGDLSSESTVSRIRTEHFPLTLESARPSHTSQYLCASSEARGLAEFTDTQYFGPGTRLTVLEDLKNVFPPEVAVFEPSEAEISHTQKATLVCLATGFYPDHVELSWWVNGKEVHSGVCTDPQPLKEQPALNDSRYCLSSRLRVSATFWQNPRNHFRCQVQFYGLSENDEWTQDRAKPVTQIVSAEAWGRADCGFTSESYQQGVLSATILYEILLGKATLYAVLVSALVLMAMVKRKDSRGRAKRSGSGATNFSLLKQAGDVEENPGPTSATMDWIWRILFLVGAATGAHSGPQVQLQESGGGLAQAGGSLRLSCAASGRTFSMGWFRQAPGKEREFVAAITYSGGSPYYASSVRGRFTISRDNAKNTVYLQMNSLKPEDTAVYYCAANPTYGSDWNAENWGQGTQVTVSSGSGGGGSGGGGSGGGGSFEQVQLQQPGAELVKPGASVKMSCKASGYAFSSYWINWMKQKPGQGLEWIGQIYPGDGDTNYNGKFKGRATLTADTSSSTAYMQLSSLTSEDSAVYFCARSITTVVGCAMDYWGQGTSVTVSSTRIQNPDPAVYQLRDSKSSDKSVCLFTDFDSQTNVSQSKDSDVYITDKCVLDMRSMDFKSNSAVAWSNKSDFACANAFNNSIIPEDTFFPSPESSCDVKLVEKSFETDTNLNFQNLSVIGFRILLLKVAGFNLLMTLRLWSSRAKRSGSGVKQTLNFDLLKLAGDVESNPGPSRGHMTEYKPTVRLATRDDVPRAVRTLAAAFADYPATRHTVDPDRHIERVTELQELFLTRVGLDIGKVWVADDGAAVAVWTTPESVEAGAVFAEIGPRMAELSGSRLAAQQQMEGLLAPHRPKEPAWFLATVGVSPDHQGKGLGSAVVLPGVEAAERAGVPAFLETSAPRNLPFYERLGFTVTADVEVPEGPRTWCMTRKPGA
In the case of B4, the “NFAT-GFP ASSAY: Raji” value is “Raji (5+) (refer to approximately 5%, 10%, 20%, 30%, 40% and 50% GFP positive cells)”.

The values above are taken from US20230212319A1, “NOVEL ANTIGEN BINDING DOMAINS AND SYNTHETIC ANTIGEN RECEPTORS INCORPORATING THE SAME” (University of Southern California, priority 2020, published 2023).
